This series concerns the target T1, RVFV nucleoprotein (N) (Rift Valley fever virus, UniProt D3K5I7 1-245).
T1 sequence: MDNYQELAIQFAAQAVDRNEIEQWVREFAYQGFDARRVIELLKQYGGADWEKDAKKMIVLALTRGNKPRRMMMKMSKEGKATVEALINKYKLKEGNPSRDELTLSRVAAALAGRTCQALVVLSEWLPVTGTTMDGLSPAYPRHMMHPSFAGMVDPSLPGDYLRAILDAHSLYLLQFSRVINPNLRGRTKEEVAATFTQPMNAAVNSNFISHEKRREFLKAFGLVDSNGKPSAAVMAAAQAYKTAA
Put plainly: fluorescence bead binding assay.

B1: RV-2 (RVF 2) (ssDNA)
DNA: CTCCAGCGTAAACTACTGAAGACTGTGCCGGAAAGATC
The term Kd denotes a measure of binding affinity in units of concentration. As to B1, the affinity, expressed as Kd, was 15.4 nM.

B2: RV-5 (ssDNA)
DNA: CAGAAAAAGTGCCGACCGAACGATGTGTAAGCGCTATGAGA
B2 gave a Kd of 41 nM.

B3: RV-3 (RVF 3) (ssDNA)
DNA: AGATGTCCTGCGTCGAGACACTTCTGCATTACTACGTTGG
With B3, binding was put at a Kd of 18.6 nM.

Source of the values: paper PMC11470950.
